Measurements taken from US20230072133A1 (WUXI BIOLOGICS IRELAND, published 2023).

How the values were obtained:
[1] = target: T1, Human PD-L1 extracellular domain (ECD) antigen His tagged (human, UniProt Q9NZQ7 19-238); test: SPR (Biacore 8K), antibody captured by anti-human IgG Fc, PD-L1 as analyte, 1:1 model
T1 construct: extracellular domain; The SPR and the PD-L1-coated ELISA say only 'human PD-L1'; also called human PD-L1 ECD protein; Human PD-L1 (SPR analyte); not shown: His tag
Experimental: (§1) Antibody was captured on an anti-human IgG Fc antibody immobilized CM5 sensor chip (GE). Human or cyno PD-L1 at different concentrations were injected over the sensor chip at a flow rate of 30 μL/min for an association phase of 180 s, followed by 3600 s dissociation. Mouse PD-L1 at different concentrations were injected over the sensor chip at a flow rate of 30 μL/min for an association phase of 120 s, followed by 1200 s dissociation. The chip was regenerated by 10 mM glycine (pH 1.5) after each binding cycle.
(§2) The sensorgrams of blank surface and buffer channel were subtracted from the test sensorgrams. […] The experimental data was fitted by 1:1 model using Langmiur analysis. Molecular weight of 40 kDa was used to calculate the molar concentration of human, mouse and cyno PD-L1.

[2] = target: T2, Cynomolgus monkey (cyno) PD-L1 ECD antigen His tagged (cynomolgus monkey, UniProt G7PSE7 19-238); test: as above
T2 construct: also called Cyno PD-L1 (SPR analyte)
Experimental: as §1, §2

[3] = target: T3, Human PD-L1, full length, on transfected cells (W315-CHO-K1.hProl.C11) (human, UniProt Q9NZQ7 19-290); test: PD-L1 FACS on human PD-L1 expressing cells, WT1122 after 0 to 14 days in human serum at 37 °C [lower panel]
T3 construct: whole, on cells; Also used here for the human PD-L1 on the artificial APC (CHO-K1 with human PD-L1 and OKT3 scFv) of the reporter gene assay; also called hPD-L1; cell surface human PD-L1
Experimental: (§3) Various concentrations of testing antibodies were incubated with hPD-L1 expressing W315-CHO-K1.hProl.C11 cells at 4° C. for 1 hour. After washing, the cells were incubated with PE-labeled goat anti-human IgG-Fc antibody (Jackson Immuno Research). Finally, the MFI of the cells was measured by a flow cytometer and analyzed by FlowJo.
(§4) The samples were quickly thawed immediately prior to the stability test.

Human TGF-β2 [4] = target: T4, Human TGF-β2 (human, UniProt P61812 303-414); test: ELISA, antibody immobilized, soluble TGF-β2 titrated; ELISA with antibody immobilized and soluble TGF-β2 titrated: binds
T4 sequence (looked up): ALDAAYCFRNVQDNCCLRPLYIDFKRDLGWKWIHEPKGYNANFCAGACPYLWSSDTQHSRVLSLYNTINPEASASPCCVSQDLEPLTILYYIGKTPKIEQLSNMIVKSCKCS
Experimental: The binding of antibody to human TGF-β2 was also determined by ELISA immobilized with testing antibodies. After blocking and washing, various concentrations of TGF-β2 were added to the plates and incubated at room temperature for 1 hour. The plates were then washed and incubated with biotinylated TGF-β2 detection antibody (R&D, DY240) for 1 hour, followed by streptavidin-HRP for 1 hour. After washing, TMB substrate was added and the color reaction was stopped by 2M HCl. The absorbance at 450 nm and 540 nm was read using a microplate reader (SpectraMax M5e).

[5] = target: T3, Human PD-L1, full length, on …; test: cell-based or functional assay
Human TGF-β1 [6] = target: T5, Human TGF-β1 (human, UniProt P01137 279-390); test: cell-based or functional assay
[7] = target: T3, Human PD-L1, full length, on …; test: FACS on human PD-L1 expressing CHO-K1 cells
Experimental: as §3

Human TGF-β2 [8] = target: T4, Human TGF-β2; test: SPR (Biacore 8K), antibody immobilized on CM5, TGFβ as analyte, 1:1 model; SPR with WT1122 as ligand on the chip and soluble TGF-β2 as analyte: binds
Experimental: (§5) Antibody binding affinity to TGFβ was detected by SPR assay using Biacore 8K. Each antibody was immobilized on CM5 sensor chip (GE). Human TGFβ1 and TGFβ3 at different concentrations were injected over the sensor chip at a flow rate of 50 uL/min for an association phase of 240 s, followed by 1200 s dissociation. Human TGFβ2 at different concentrations were injected over the sensor chip at a flow rate of 50 uL/min for an association phase of 240 s, followed by 300 s dissociation. The chip was regenerated by 10 mM glycine (pH 1.5) after each binding cycle.
(§6) The sensorgrams of blank surface and buffer channel were subtracted from the test sensorgrams. The experimental data was fitted by 1:1 model using Langmiur analysis. Molecular weight of 22 kDa, 24 kDa and 22 kDa were used to calculate the molar concentration of analyte TGFβ1, TGFβ2 and TGFβ3, respectively. The results are shown in […]

Human TGF-β1 [9] = target: T5, Human TGF-β1; test: ELISA, plate coated with human TGF-β1
Experimental: (§7) The binding of antibodies to human TGF-β1, TGF-β2 and TGF-β3 was determined by ELISA. Plates were coated with human TGF-β1, TGF-β2 or TGF-β3 overnight at 4° C., respectively. After blocking and washing, various concentrations of testing antibodies were added to the plates and incubated at room temperature for 1 hour. The plates were then washed and incubated with HRP-labeled goat anti-human IgG antibody (Bethyl) for 1 hour. After washing, TMB substrate was added and the color reaction was stopped by 2M HCl. The absorbance at 450 nm and 540 nm was read using a microplate reader (SpectraMax M5e).

Human TGF-β3 [10] = target: T6, Human TGF-β3 (human, UniProt P10600 301-412); test: ELISA, plate coated with human TGF-β3, antibody titrated, HRP goat anti-human IgG
T6 construct: also called TGF433 [sic]
T6 sequence (looked up): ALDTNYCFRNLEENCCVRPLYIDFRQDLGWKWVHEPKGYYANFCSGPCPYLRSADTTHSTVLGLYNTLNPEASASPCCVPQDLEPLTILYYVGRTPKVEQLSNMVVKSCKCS
Experimental: as §7

Human TGF-β3 [11] = target: T6, Human TGF-β3; test: SPR (Biacore 8K), antibody immobilized on CM5, TGFβ as analyte, 1:1 model
Experimental: as §5, §6

Human TGF-β1 [12] = target: T5, Human TGF-β1; test: as above
Experimental: as §5, §6

Human TGF-β3 [13] = target: T6, Human TGF-β3; test: ELISA, plate coated with human TGF-β3
Experimental: as §7

Human TGF-β1 [14] = target: T5, Human TGF-β1; test: ELISA, plate coated with human TGF-β1, antibody titrated, HRP goat anti-human IgG
Experimental: as §7

[15] = target: T7, Mouse PD-L1 (soluble SPR analyte) (mouse, UniProt Q9EP73 19-239, limits assumed); test: SPR (Biacore 8K), antibody captured by anti-human IgG Fc, mouse PD-L1 as analyte, 0-300 s curves fitted
T7 construct: 40 kDa used for molarity
Experimental: as §1, §2

Human TGF-β1 [16] = target: T5, Human TGF-β1; test: dual binding ELISA coating with TGF-β1, WT1122 after 0 to 14 days in human serum at 37 °C, detected with biotinylated human PD-L1 ECD and streptavidin-HRP [upper panel]
Experimental: After blocking and washing, various concentrations of testing antibodies were added to the plates and incubated at room temperature for 1 hour. […] After washing, TMB substrate was added and the color reaction was stopped by 2M HCl. The absorbance at 450 nm and 540 nm was read using a microplate reader (SpectraMax M5e).
as §4

Human FcRn = Human FcRn (human, UniProt P55899 24-297; P61769 21-119); test: SPR (Biacore 8K), antibody immobilized on CM5, human FcRn as analyte, steady-state model, pH 6.0
Experimental: Each antibody was immobilized on CM5 sensor chip (GE). […] The chip was then regenerated by 10 mM glycine (pH 1.5) after each binding cycle. The sensorgrams of blank surface and buffer channel were subtracted from the test sensorgrams.

[17] = target: T8, Mouse PD-L1, full length, on transfected cells (W315-293F.mPro1.C1) (mouse, UniProt Q9EP73 19-290); test: FACS on mouse PD-L1 expressing 293F cells
T8 construct: whole, on cells; also called cell surface mouse PD-L1
Experimental: (§8) The binding of testing antibodies to cynomolgus monkey or mouse PD-L1 was determined by FACS. Various concentrations of testing antibody were incubated with cynomolgus PD-L1-expressing W315-293F.cynoPro1.2A2 cells or mouse PD-L1 expressing W315-293F.mPro1.C1 cells at 4° C. for 1 hour, and then the binding of antibodies to the surface of the cells was detected by PE-labeled goat anti-human IgG-Fc antibody (Jackson Immuno Research). MFI of the cells was measured by a flow cytometer and analyzed by FlowJo.

[18] = target: T3, Human PD-L1, full length, on …; test: competition FACS: blocks mFc tagged human PD-1 binding to human PD-L1 expressing cells
Experimental: MFI of the cells was measured by a flow cytometer and analyzed by FlowJo.

[19] = target: T9, Cynomolgus monkey PD-L1, full length, on transfected cells (W315-293F.cynoPro1.2A2) (cynomolgus monkey, UniProt G7PSE7 19-290); test: FACS on cyno PD-L1 expressing 293F cells
T9 construct: also called cyno PD-L1; cell surface cyno PD-L1
Experimental: as §8

T2 sequence (G7PSE7 entry or part of it limits assumed): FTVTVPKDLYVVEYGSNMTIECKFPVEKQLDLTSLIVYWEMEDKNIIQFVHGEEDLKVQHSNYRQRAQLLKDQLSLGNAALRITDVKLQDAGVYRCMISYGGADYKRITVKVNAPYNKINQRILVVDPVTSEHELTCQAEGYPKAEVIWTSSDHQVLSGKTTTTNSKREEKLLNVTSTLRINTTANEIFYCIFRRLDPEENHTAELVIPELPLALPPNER
T5 sequence (P01137 279-390 limits assumed): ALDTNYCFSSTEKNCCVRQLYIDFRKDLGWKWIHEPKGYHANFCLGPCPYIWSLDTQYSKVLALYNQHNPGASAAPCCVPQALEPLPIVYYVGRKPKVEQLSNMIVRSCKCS
T1 sequence (Q9NZQ7 19-238): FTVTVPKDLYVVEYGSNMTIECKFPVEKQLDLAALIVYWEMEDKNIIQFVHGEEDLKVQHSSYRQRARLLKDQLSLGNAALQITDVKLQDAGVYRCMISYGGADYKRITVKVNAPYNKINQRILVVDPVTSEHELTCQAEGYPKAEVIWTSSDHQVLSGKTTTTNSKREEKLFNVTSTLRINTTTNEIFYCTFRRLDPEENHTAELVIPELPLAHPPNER
T3 sequence (Q9NZQ7 19-290): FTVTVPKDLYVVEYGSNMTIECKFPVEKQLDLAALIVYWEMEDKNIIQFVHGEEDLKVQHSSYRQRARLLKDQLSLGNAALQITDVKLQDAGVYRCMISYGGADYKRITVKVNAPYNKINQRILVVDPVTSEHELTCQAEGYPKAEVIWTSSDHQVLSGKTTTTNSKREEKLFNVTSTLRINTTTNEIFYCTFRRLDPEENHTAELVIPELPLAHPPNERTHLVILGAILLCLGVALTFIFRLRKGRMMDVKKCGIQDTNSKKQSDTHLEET
T9 sequence (G7PSE7 entry or part of it limits assumed): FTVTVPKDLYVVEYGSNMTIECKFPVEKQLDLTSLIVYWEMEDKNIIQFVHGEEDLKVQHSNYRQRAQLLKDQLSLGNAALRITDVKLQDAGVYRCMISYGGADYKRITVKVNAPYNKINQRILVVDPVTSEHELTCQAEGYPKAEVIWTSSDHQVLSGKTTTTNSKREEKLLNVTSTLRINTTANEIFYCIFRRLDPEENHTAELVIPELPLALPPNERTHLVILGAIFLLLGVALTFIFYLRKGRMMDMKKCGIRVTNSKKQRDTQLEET
T7 sequence (Q9EP73 19-239 limits assumed): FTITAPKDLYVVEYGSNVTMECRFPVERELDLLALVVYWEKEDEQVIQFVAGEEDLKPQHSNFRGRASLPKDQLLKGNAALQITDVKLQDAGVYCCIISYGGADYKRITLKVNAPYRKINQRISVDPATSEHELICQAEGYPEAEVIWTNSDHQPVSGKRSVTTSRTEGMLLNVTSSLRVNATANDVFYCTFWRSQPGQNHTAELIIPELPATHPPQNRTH
T8 sequence (Q9EP73 19-290): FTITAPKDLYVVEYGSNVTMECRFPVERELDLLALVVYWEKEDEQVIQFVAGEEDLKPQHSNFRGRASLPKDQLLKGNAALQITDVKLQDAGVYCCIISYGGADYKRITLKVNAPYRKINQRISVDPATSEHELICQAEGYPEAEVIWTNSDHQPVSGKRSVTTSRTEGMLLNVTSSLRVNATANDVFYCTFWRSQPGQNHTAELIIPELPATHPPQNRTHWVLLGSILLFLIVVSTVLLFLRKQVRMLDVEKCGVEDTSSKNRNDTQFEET

Kd [1]: 0.695 nM
koff [1]: 0.00168 s⁻¹
kon [1]: 2.41e+06 M⁻¹ s⁻¹
Kd [2]: 0.446 nM
koff [2]: 0.00135 s⁻¹
kon [2]: 3.03e+06 M⁻¹ s⁻¹
EC50 (read off the curve) [3]: ~0.2 nM
EC50 (Human TGF-β2 [4]): 0.07 nM
hPD-1/PD-L1 signaling blockade IC50, NFAT luciferase reporter gene assay (RGA) [5]: 0.31 nM
TGF-β1 blockade IC50, SBE luciferase reporter gene assay (RGA) (Human TGF-β1 [6]): 1.2 nM
EC50 [7]: 0.7 nM
Kd (Human TGF-β2 [8]): 0.369 nM
koff (Human TGF-β2 [8]): 0.0149 s⁻¹
kon (Human TGF-β2 [8]): 4.02e+07 M⁻¹ s⁻¹
EC50 (Human TGF-β1 [9]): 0.5 nM
EC50 (read off the curve) (Human TGF-β3 [10]): ~0.8 nM
Kd (Human TGF-β3 [11]): 0.00162 nM
koff (Human TGF-β3 [11]): 9.35e-05 s⁻¹
kon (Human TGF-β3 [11]): 5.78e+07 M⁻¹ s⁻¹
Kd (Human TGF-β1 [12]): 0.00165 nM
koff (Human TGF-β1 [12]): 0.000206 s⁻¹
kon (Human TGF-β1 [12]): 1.25e+08 M⁻¹ s⁻¹
EC50 (Human TGF-β3 [13]): 0.8 nM
EC50 (read off the curve) (Human TGF-β1 [14]): ~0.5 nM
Kd [15]: 1080 nM
EC50 (read off the curve) (Human TGF-β1 [16]): ~0.4 nM
Kd (Human FcRn): 2570 nM
EC50 [17]: 1.2 nM
IC50 [18]: 0.04 nM
EC50 [19]: 1.08 nM
B1: WT1122-U14T1.G15-1.uIgG1 (antibody)
heavy: not shown
light: SYELTQPPSVSVSPGQTASITCSGSELPKRYAYWYQQKPGQSIVRVIYKDSERPSGISERFSGSSSGNTATLTISGTQAMDEADYYCSSTYGDRKLPIFGGGTKLTVLGQPKAAPSVTLFPPSSEELQANKATLVCLISDFYPGAVTVAWKADSSPVKAGVETTTPSKQSNNKYAASSYLSLTPEQWKSHKSYSCQVTHEGSTVEKTVAPTECS
